Laboratory results taken from paper PMC4914108 (Nucleic Acids Research, 2016).
Residue numbers refer to the chain shown, from its start. Read-outs that look alike come from different tables or passages of the source.

B1: 14mer ram centromere site (FP) (dsDNA)
DNA 1: TGACGCCGGCGTCA
DNA 2: TGACGCCGGCGTCA
B2: RacA C-terminal region, RacA(71-184) (domain or fragment, B. subtilis, UniProt P45870 71-184, looked up)
chain: RTGFLVQKTSSDTERRIEQLEQKLDTLLQQRQDESELMARMSELERQLKQKADEGVSYQLLQHRREIDDILADLQSLTSQMKEFTAHSIPETAAASEKTKTRKKPLLSLFKFQT
B3: 14mer ram site, 5-bromouracil (dsDNA)
DNA 1: TGACGCCGGCGTCA
DNA 2: TGACGCCGGCGTCA
modifications: thymines replaced with 5-bromouracil
B4: DivIVA C-terminal domain, DivIVA(66-164) (domain or fragment, B. subtilis, UniProt P71021 66-164, looked up)
chain: TLNKSILVAQEAAEDVKRNSQKEAKLIVREAEKNADRIINESLSKSRKIAMEIEELKKQSKVFRTRFQMLIEAQLDLLKNDDWDHLLEYEVDAVFEEKE

Legend:
RacA C-domain = biological target: T1, RacA C-domain (Bacillus subtilis, UniProt P45870 71-184); test: fluorescence polarization
T1 sequence: B2 chain

RacA DBD R30A = biological target: T2, RacA DBD R30A (Bacillus subtilis, UniProt P45870 1-70, R30A); test: fluorescence polarization
T2 sequence: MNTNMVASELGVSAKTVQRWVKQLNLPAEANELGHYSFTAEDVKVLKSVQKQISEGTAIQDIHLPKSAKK

RacA DBD = biological target: T3, RacA DBD (Bacillus subtilis, UniProt P45870 1-70); test: fluorescence polarization
T3 sequence: T2 sequence with A30R

RacA FL = biological target: T4, RacA FL (Bacillus subtilis, UniProt P45870 1-184); test: fluorescence polarization
T4 sequence: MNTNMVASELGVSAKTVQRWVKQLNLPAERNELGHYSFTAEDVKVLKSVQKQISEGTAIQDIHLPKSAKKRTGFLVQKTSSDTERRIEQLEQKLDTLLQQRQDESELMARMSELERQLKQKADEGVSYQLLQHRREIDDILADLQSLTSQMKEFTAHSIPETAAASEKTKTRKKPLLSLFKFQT

RacA DBD K15A = biological target: T5, RacA DBD K15A (Bacillus subtilis, UniProt P45870 1-70, K15A); test: fluorescence polarization
T5 sequence: T2 sequence with K15A, A30R

[1] = biological target: B4; test: ITC
[2] = biological target: T6, RacA from FL crystals (proteolyzed) (Bacillus subtilis, UniProt P45870 1-64); test: X-ray crystallography
T6 sequence: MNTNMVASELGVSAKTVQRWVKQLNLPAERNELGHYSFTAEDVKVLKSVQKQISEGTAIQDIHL

[3] = biological target: B2; test: ITC
[4] = biological target: B2; test: ITC; remark: listed apart in the source

B1 was tested, and the binding result (RacA C-domain) was “no binding”, the Kd (RacA DBD R30A) was roughly 50 µM and the Kd (RacA DBD) was 9.2 ± 4 µM. It also gave a Kd (RacA FL) of 0.0584 ± 0.0003 µM and a Kd (RacA DBD K15A) of roughly 50 µM.

In the case of B2, the “stoichiometry N” value [1] is reported as 1.

B3: binds [2].

With B4 the Kd [3] was 1.9 µM, the Kd [4] was 1.5 µM and the “stoichiometry N” value [4] was 1.
